From the DeepSol protein solubility set

experiment: soluble on expression in E. coli; label from the status in PepcDB or PDB records

Soluble on expression in E. coli, soluble:
MASISEKMVEALNRQINAEIYSAYLYLSMASYFDSIGLKGFSNWMRVQWQEELMHAMKMFDFVSERGGRVKLYAVEEPPSEWDSPLAAFEHVYEHEVNVTKRIHELVEMAMQEKDFATYNFLQWYVAEQVEEEASALDIVEKLRLIGEDKRALLFLDKELSLRQFTPPAEEEK
MMITSVEKDTKNRGMLSVFIDEKYAFSIPEEDYFRLCLYDKKELSSDEIEEIKKGVSQRTAKYKAVKYLSYRYMTEAELSQKLRKDGYDEDVILNVVTELKSMGYINDLIYAQKYVYDRIKLKPKAKKMLKRELNQKGVSDEIADQVLSELDFDEDVVIERLIRKKFGKYDMKDPKIQKRIYSFLLHRGFDFENIKRVLRTITHLD
SLRLTQGLFRFPLAGLLCLSTAAFAESQLSVRVTPANAALKANIEAYVGSLGERDEAALQRFRRNAEAQAEKAAQALGYFQAQIDSEVKDGKPPKLTLKVVPGEPVRLRQVNIQVLGEAASLESFRLPSGKQLKPGAKLNQGVYEDAKRLIQNQASRYGFFQGRFSTQRLSIDPRAGIADIDLVYDSGQRYTFGKVSFDGDSIIEEELLRRMVPFKAGQPYDSELIAELNQNLQSSGYFEGVRVDAAPTQAQADGARQAIPVAVRLEARKPRTMGVGLGFSTDVGARARFNWTRHWVNAEGHSLGFESEISAPRQNVGAWYEIPLDPPLTDKLRFTSGYQFEDLVDTESKLLTLGGEWHSKRPDGWQRVVSLNWMREEYKLGDDSGLSSFLMPGIGYSLLETDNKVDPSHGYRLQFNVKGAKEGLLADADVLHVDAMAKGLTSFAGGHRLLGRLQVGGIATNDYKSIPPSLRFFAGGDQSVRGYDYRTLSPENSDGDKIGGRYMIAGSVEYQYPLAERWRLATFVDQGNAFNSLDFPSIKTGVGFGVRWVSPVGPLRLDLAHALDDDGGFRLHFSMGPEL
MSLNQLTDHVTLRHGATLNNRIVMSPMQTHSGLKGGFASDDTIQYYSARSRAAGMLITEFHYVSENGGPAYVPGYPEQLGAYSDAHLEGLRKTVQALKKDGNKAILQIHHAGRAAVGRHVNGLDVVAPSAIDFSFLDYPVRELTITEIDDIILDFGKATKRAIDAGFDGVEIHGANHYLIQQFFSKLSNLRTDKWGGSLNKRMAFPLAVVKEVKAIVDEYAPKGFIIGYRISPEELHGKNVGYDYTEALTLISEVIKYELDYIHLSLWAGYNSKPENSEKSYAELFKEILDDKTKLLIVGGIFGEDTATDAIENYADLIAVARGTLIDPNFAKKVTEGKGDTILHKISPETVEYSHLTPGLLEAFSREDSLGLPPLPGGETIRHLHTGKYDEGHHHHHH
EGSIGNGLDLTGILFGNIDSEGRLLQDDDGEGRGGTGFDAELRENIGSLSKLGLDSMLLEVIDLKEA
GSPGIPMVAAHAAHSQSSAEWIACLDKRPLERSSEDVDIIFTRLKGVKAFEKFHPNLLRQICLCGYYENLEKGITLFRQGDIGTNWYAVLAGSLDVKVSETSSHQDAVTICTLGIGTAFGESILDNTPRHATIVTRESSELLRIEQEDFKALWEKYRQYMAGLLAPPYGVMETGSNNDRIPDKENVPSEKILRAGKILRIAILSRAPHMIRDRKYHLKTYRQCCVGTELVDWMIQQTSCVHSRTQAVGMWQVLLEDGVLNHVDQERHFQDKYLFYRFLDDEREDAPLPTEEEKKECDEELQDTMLLLSQMGPDAHMRMILRKPPGQRTVDDLEIIYDELLHIKALSHLSTTVKRELAGVLIFESHAKGGTVLFNQGEEGTSWYIILKGSVNVVIYGKGVVCTLHEGDDFGKLALVNDAPRAASIVLREDNCHFLRVDKEDFNRILRDVEANTVRLKEHDQDVLVLEKVPAGNRAANQGNSQPQQKYTVMSGTPEKILEHFLETIRLEPSLNEATDSVLNDFVMMHCVFMPNTQLCPALVAHYHAQPSQGTEQERMDYALNNKRRVIRLVLQWAAMYGDLLQEDDVAMAFLEEFYVSVSDDARMMAAFKEQLPELEKIVKQISEDAKAPQKKHKVLLQQFNTGDERAQKRQPIRGSDEVLFKVYCIDHTYTTIRVPVAASVKEVISAVADKLGSGEGLIIVKMNSGGEKVVLKSNDVSVFTTLTINGRLFACPREQFDSLTPLPEQEGPTTGTVGTFELMSSKDLAYQMTTYDWELFNCVHELELIYHTFGRHNFKKTTANLDLFLRRFNEIQFWVVTEVCLCSQLSKRVQLLKKFIKIAAHCKEYKNLNSFFAIVMGLSNVAVSRLALTWEKLPSKFKKFYAEFESLMDPSRNHRAYRLTAAKLEPPLIPFMPLLIKDMTFTHEGNKTFIDNLVNFEKMRMIANTARTVRYYRSQPFNPDAAQANKNHQDVRSYVRQLNVIDNQRTLSQMSHRLEPRRP

Soluble on expression in E. coli, not soluble:
MAHHHHHHMVTLNSTKPQVVIEASGVPTIQTSSITSPVVLTTPLGKSMYSSYSYSNPVSSSYSSSHHNECEYNWERVSTKPSQSTQHGEYMKTFEVPTGLYYETLPLKRNTNNIFEVTPSKEELEKINYNPRIEVYSTCNFVIIMMDLPGVSKENLKVELENGVLKIFGHKYKVPLEELQTEHEYHTKIIERVGEYYFCKMFQMPPVFSDGQSISCTLRDGELTFKMLASDLRAQKRVVEVQS
FEKMKKEVEEILYNLKKEGGKYHCILAFSGGKDSVLALKLLKEKFKLNPLCVMVDNKYMAKEAIENALNVTKHYQVDLMILNRDYTDLFEDAIKRGESPCRRCSRLILREVWRVTKLLGLKYIITGHELP
MRSKRWKTSDITDYGKKRKESESCGSSSPILETQSSGGAELDEVTEDEYSSNSSSNETSDEEENSEVPNVLSITEREKSWQKLTENDLGRIRFILKYTSNTKKCVNEYFQYNHGQNNEIMKSLLLDTDGTMTAKACSECAYDLNQCHCKKPLRFINAPCEVINQVLHVENAEPTRINHVIATLFRNHIGEIFTKARTAEARASEEAQIRIQIQDNSNAFQRSYHNDPQPSSAEEHEEDIVVDG
MKRVALLAVGSFNPPTIAHLRMLEVARSHLETINTQVVEGIMSPVADSYNNKPTLIKSNFRIQMVRAATKSSDWIRADDWECTRTTWTRTIDVLRHHRELVQEKFGSDVGMMLVVGGDVVDSFTRILPDGSNLWNSSDIRTIITEFGLIVLSREGSNPLNTIQSMPAISEFCDRIIQVKDEVCPSGVSSTRLRAAIMNKKSIKYSTPDEVINFIRENNLYQKI
MFKDKKILVIGGTGSIGQALIERILTENPAVIRVYSRDEYKQFLLAEKFRENANIRYLIGDVRDEDRLDRAMNDIDIVFNLAALKHVPACEYNPFEAVRTNVIGSQNVIACAMANKVKKVIYTSSDKAVSPTNTMGATKLLAERLMSSSNYSRGNTGTVFASVRFGNVMGTRGSVIPLFKQQVLEKGYITVTEPEMTRFMMSLSQAVELTIKACSIARGGEVFVLKMPVIRLKDLAEVIIEDMCKKNNIDPEKIEIKKIGLRPGEKMYEELMSEDESTKAVELNDMYVIMPPFENSYYINARKAVIGNYSSQKEKTLTKSQIRELLVREKLI
PHDFPHFDKERYARTTRKVIARMNQELASHEQIKGVLMIKEPWSIENGVLTPTLKIKRHVLEQKYHELGHNWPKDELVLWEEDL
GPGSMEAVGTADRPSLEFCPQAQNSPQTRPLLCVRRPPETVRRRHDRNPPRDSTQTADAVPWDSSSSPPHASCTAGGYKTSRGARQMALPFLFPPPGVGQRSFVADRVHRRQHCGLAQPLPQPWLRAASRSILLGDASSALPPLDPPAARPSVCRQRLALHGSGG
MSLSKRSIPNVDWANQLENAIRQFVKEKLELIMREEIKNFLEIEQAGTPNMRNGYYQRNLDTQYGRIEGLLVPRDRNGEFQTQLFAPYQRHTGWLEEAIIRMYQSGMSTREIGKFIERILGSTYSPATISRITDVVKEDIEKWHARPLHQRYSVLYLDGLYVKLRRDTVEKEVIYVVLGVNEEGYREILDFFVGGQESAYVWQEILQQLYKRGVKEVLLGVFDGLPGLEEAFKAVYPKADVQRCVVHKVRNTLSRVRKKDQFEMAEDLKLIYRSPNKEIALEMFQQFQSKWSHKYPREVQSWANELDVLLTFMDYPSSIRSVIYTTNAIERTIKEIRKRLKPMNSLSSLEAAEKVVYLTIQDFNEKWAGRKLRGFAEAQEALQRMFEEREGHHHHHH
MGALERFGVDFITVDQGNGQWDIQAIEINLRKGGTTHPFMTLKLLTNGRYELSTGLFYSQQGRPKYYIATDNLQKDRYRGLLPNDLMDIIAHHRLHFDSCTETGTVFHLMGCLSQFGKLGLTSIGDSPQQAEDIYNKVVKVLDEETRVNNKQFPLFSDYTFPNLEHHHHHH
TKDFSWTTSLNLSHNKNKIVKLADLPEFIDGNYIRKEGCSYATIYLREYAGVDPNDGRPMYYDNKEDENGNRSRNIVYDPNDADRVELKDIYPKLTGGLMNTFNYKFIDLSFNLSFHLGGYSYDGAMYALQDDGYTAQYNKSTELRRRWKQPGDITDVPRYVYGQEYGGWWNSSRGVHSTDHLRLKSLIVGVSAPQSWLRTIGINSARIYFSGTNLLTWAAYDQYDPELNGIVSYFTPPLKTFAFGLELKF
MSLNAPKLVIGANGFLGSHVTRQLVADCAPQKGEVRAMVRPAANTRSIDDLPLTRFHGDVFDTATVAEAMAGCDDVYYCVVDTRAWLRDPSPLFRTNVAGLRNVLDVATDASLRRFVFTSSYATVGRRRGHVATEEDRVDTRKVTPYVRSRVAAEDLVLQYAHDAGLPAVAMCVSTTYGGGDWGRTPHGAFIAGAVFGRLPFTMRGIRLEAVGVDDAARALILAAERGRNGERYLISERMMPLQEVVRIAADEAGVPPPRWSISVPVLYALGALGSLRARLTGKDTELSLASVRMMRSEADVDHGKAVRELGWQPRPVEESIREAARFWAAMRTVGKDPAASEGHHHHHH
MNPSPSIAGLSDIEALERVPLEQRDLPSSTYELLQRSARRHGQRIALSCLLHGSAAEEPLRISYAELFARVTQTANALHRLGLESHQAVSFLLPNLPQTHYVIWGGEAAGIVNAINPLLEPEHIAELIRASNTRVLVTLAPFPGTDLWQKVAGLRAQLPELYAIVVVDPANLLPAPQREALKAQRGPLPEGVLDFDTLIADCPADRLESGRAIHPDDVASYFHTGGTTGTPKLAPHSHFNEVAMAEIMGLNADYGVDDVLLCGLPLFHVNGVMVTGLAPFHRGAQVLLAGPQGYRNPTLIQDFWKLVERYRVTSFSGVPTIYAALLQVPSDGRDLSSLRFALCGAAPMPVELIRQFEARTGLKVIEGYGLTEGTCGTSCNPRGGERRPGSIGLRLPYCQVKVAVLDGEGNYLRDAAPNEVGNLCLKGPTVFKGYLQQDRNRDIWIGDGWFNTGDLGRIDEDGYIWLTGRSKDLIIRGGHNIDPQMIEEALHRHPAVALAAAVGKPDAKAGELPVAYIQLKPGASASEEELLEHASRHVPERAAVPKDIWLIESMPVTAVGKTFKPALRLDAIRRVLEEESRRIAEDIRVEVVADERHGQLAHLHVPALDERRQAALEELLGGYALNYRL
GPGSMWFNHRIRQRGLTPVLVNTLQKRLTCSLTRICLCDCKDASGREGVSSSTSGSVPSRMTSQNPPPRPPPTTPAATPGGVQYNTRRESEAVAIEQRRQQQQRATDAQRRGEEPLPEQSESEMARWWPEENQNWSGRMFASPLDKNKKKFDGMFVPEMKEVHGPDKPLELSYAGDNFFLNPDFHMADEVFDETRRFVPPPSFDPAVDEIDDEGFVDGQVMFDIQKAVDEDRRRLEAFGNPLLVEDQVDYLLQPQREGQENIQQRQEFNGFVHWGLLHGAHMIIEENQDYKKAHEFVNRYMRDIDLFQKWLEHPKVRAHIQKKFGVDMHAKFDKLMALVMAMYARSKIQVYEDDPAGALKSLTACMSFINEGADLKKERHRKAIGAVLAARGMVYCKLKSYDRAEDDLTRALRFVNQKRCATLFQLRAEAREALGRIEEARLDEERAAEIWENAEVIAPGMSGKPYKFVL
